This is an account of results in patent US20260226185A1 (MAYO FOUNDATION FOR MEDICAL EDUCATION AND RESEARCH, published 2026).

The test concerns the target T1, human B-cell activating factor receptor (BAFF-R) polypeptide (human, UniProt Q96RJ3 1-184).
T1 sequence: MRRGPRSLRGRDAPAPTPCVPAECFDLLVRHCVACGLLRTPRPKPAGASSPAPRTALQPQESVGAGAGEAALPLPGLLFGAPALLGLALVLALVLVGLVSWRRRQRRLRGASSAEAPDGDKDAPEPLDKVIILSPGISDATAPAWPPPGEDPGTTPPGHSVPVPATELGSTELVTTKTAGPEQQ
Briefly: flow cytometry on BAFF-R expressing 293FT cells vs 293FT cells, R-PE goat anti-mouse IgG detection. The method, then: The lead clone was identified and advanced to purification. […] Following two washes in FACS (PBS with 2% bovine serum albumin), cells were incubated with R-PE conjugated goat anti-mouse IgG for 30 minutes at 4° C. Cells were then washed as before and resuspended in 400 μL FACS for analysis on an Attune flow cytometer (Thermo Fisher). […] Anti-BAFF-R monoclonal antibody development was monitored by R-phycoerythrin conjugated goat anti-mouse IgG (BD Bioscience, San Jose, California).
A general note: In flow cytometry, cells or beads pass a laser one at a time.

B1: anti-BAFF-R monoclonal antibody C21 (Clone #1) (antibody, V domains shown)
VH: DVQLVESGGGLVQPGGSRKLSCAASGFTFSSFGMHWVRQAPEKGLEWVAYINSGSSTINYADTVKGRFTISRDNPKNTLFLQMTSLRSEDTAMYYCTIYYYAMDYWGQGTSVTVSS
VL: DIVMSQSPSSLTVSVGEKVSMSCKSSQTLLYSGNQKNYLAWYQQKPGQSPKLLIYWASTRESGVPDRFAGSGSGTDFTLTISSVKAEDLAVYYCQQYYIYPPWTFGGGTKLEIK
notes: Mouse hybridoma antibody, tested as crude supernatant and as purified mAb and detected with R-PE goat anti-mouse IgG; the mouse constant regions and the isotype are not; also called hybridoma clone 21; mAb C21
On to B1, for which the binding result is “binds”.
